# Test results reported in the supplement of paper PMC11246515.
# ± gives the standard deviation of the averaged measurements.
# Experiment: total protein half-life in vivo (active degradation + dilution); higher = more stable protein
# [1] = E. coli NCM3722 delta-clpP, growth: N-lim chemostat, doubling time 6 h
# [2] = E. coli NCM3722 delta-hslV, growth: N-lim chemostat, doubling time 6 h
# [3] = E. coli NCM3722 delta-lon, growth: N-lim chemostat, doubling time 6 h
# [4] = E. coli NCM3722 delta-smpB, growth: N-lim chemostat, doubling time 6 h
# [5] = wild type E. coli NCM3722, growth: C-lim chemostat, doubling time 3 h
# [6] = wild type E. coli NCM3722, growth: C-lim chemostat, doubling time 6 h
# [7] = wild type E. coli NCM3722, growth: C-lim chemostat, doubling time 12 h
# [8] = wild type E. coli NCM3722, growth: N-lim chemostat, doubling time 6 h
# [9] = wild type E. coli NCM3722, growth: N-lim chemostat, doubling time 12 h
# [10] = wild type E. coli NCM3722, growth: P-lim chemostat, doubling time 6 h
# [11] = wild type E. coli NCM3722, growth: P-lim chemostat, doubling time 12 h
# [12] = E. coli NCM3722 delta-clpP delta-lon delta-hslV, growth: N-lim chemostat, doubling time 6 h
Sequence,total protein half-life in vivo [1] [h],total protein half-life in vivo [2] [h],total protein half-life in vivo [3] [h],total protein half-life in vivo [4] [h],total protein half-life in vivo [5] [h],total protein half-life in vivo [6] [h],total protein half-life in vivo [7] [h],total protein half-life in vivo [8] [h],total protein half-life in vivo [9] [h],total protein half-life in vivo [10] [h],total protein half-life in vivo [11] [h],total protein half-life in vivo [12] [h]
MAEMKNLKIEVVRYNPEVDTAPHSAFYEVPYDATTSLLDALGYIKDNLAPDLSYRWSCRMAICGSCGMMVNNVPKLACKTFLRDYTDGMKVEALANFPIERDLVVDMTHFIESLEAIKPYIIGNSRTADQGTNIQTPAQMAKYHQFSGCINCGLCYAACPQFGLNPEFIGPAAITLAHRYNEDSRDHGKKERMAQLNSQNGVWSCTFVGYCSEVCPKHVDPAAAIQQGKVESSKDFLIATLKPR [P0AC47],5.78 ± 0.38,6.96 ± 1,5.92 ± 0.62,5.82 ± 0.086,3.07 ± 0.19,5.76 ± 0.11,11 ± 2.1,6.1 ± 0.5,12.2 ± 1.8,5.48 ± 0.44,13.1 ± 1.2,
MSPCKLLPFCVALALTGCSLAPDYQRPAMPVPQQFSLSQNGLVNAADNYQNAGWRTFFVDNQVKTLISEALVNNRDLRMATLKVQEARAQYRLTDADRYPQLNGEGSGSWSGNLKGNTATTREFSTGLNASFDLDFFGRLKNMSEAERQNYLATEEAQRAVHILLVSNVAQSYFNQQLAYAQLQIAEETLRNYQQSYAFVEKQLLTGSSNVLALEQARGVIESTRSDIAKRQGELAQANNALQLLLGSYGKLPQAQTVNSDSLQSVKLPAGLSSQILLQRPDIMEAEHALMAANANIGAARAAFFPSISLTSGISTASSDLSSLFNASSGMWNFIPKIEIPIFNAGRNQANLDIAEIRQQQSVVNYEQKIQNAFKEVADALALRQSLNDQISAQQRYLASLQITLQRARALYQHGAVSYLEVLDAERSLFATRQTLLDLNYARQVNEISLYTALGGG,,,5.11 ± 0.78,5.15 ± 2.9,,7.18,> 16,6.34 ± 0.14,12.47 ± 0.09,6.29 ± 0.17,13.07 ± 0.062,6.75
MLAFCRSSLKSKKYIIILLALAAIAGLGTHAAWSSNGLPRIDNKTLARLAQQHPVVVLFRHAERCDRSTNQCLSDKTGITVKGTQDARELGNAFSADIPDFDLYSSNTVRTIQSATWFSAGKKLTVDKRLLQCGNEIYSAIKDLQSKAPDKNIVIFTHNHCLTYIAKDKRDATFKPDYLDGLVMHVEKGKVYLDGEFVNH,5.63,4.99 ± 1.1,,,3 ± 1.2,4.93 ± 1.4,,4.21 ± 2.1,,5.09 ± 0.5,,> 8
MSKKIAVLITDEFEDSEFTSPADEFRKAGHEVITIEKQAGKTVKGKKGEASVTIDKSIDEVTPAEFDALLLPGGHSPDYLRGDNRFVTFTRDFVNSGKPVFAICHGPQLLISADVIRGRKLTAVKPIIIDVKNAGAEFYDQEVVVDKDQLVTSRTPDDLPAFNREALRLLGA,4.34 ± 0.18,5.59 ± 1.4,5.74 ± 0.21,4.51 ± 0.087,3.22 ± 0.3,5.32 ± 0.083,9.27 ± 0.35,4.72 ± 0.18,7.76 ± 0.18,5.12 ± 0.29,10.6 ± 1.1,6.07 ± 1.3
